This note sets out measurements from US20250215412A1 (NOVOZYMES A S, published 2025).

The target in the experiment is T1, Chryseobacterium proteolyticum deamidase polypeptide, wildtype, with His-tag (Chryseobacterium proteolyticum, UniProt Q9AQQ8 136-320).
T1 sequence: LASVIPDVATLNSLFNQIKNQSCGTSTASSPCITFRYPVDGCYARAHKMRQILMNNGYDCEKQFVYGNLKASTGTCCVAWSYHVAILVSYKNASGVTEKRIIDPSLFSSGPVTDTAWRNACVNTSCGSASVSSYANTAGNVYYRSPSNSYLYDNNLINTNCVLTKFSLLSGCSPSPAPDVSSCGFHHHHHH
In words: cell-based or functional assay.

B1: Chryseobacterium proteolyticum propeptide, wildtype (other)
chain: NQEINGKEKLSVNDSKLKDFGKTVPVGIDEENGMIKVSFMLTAQFYEIKPTKENEQYIGMLRQAVKNESPVHIFLKPNSNEIGKVESASPEDVRYFKTILTKEVKEENRK
In the case of B1, the “NanoDSF thermal unfolding temperature” value is 87.3 ° C.
